Sequences and labels used below:
B1: MMP 7 (enzyme, UniProt P09237 95-267, looked up, species assumed)
Matrilysin: YSLFPNSPKWTSKVVTYRIVSYTRDLPHITVDRLVSKALNMWGKEIPLHFRKVVWGTADIMIGFARGAHGDSYPFDGPGNTLAHAFAPGTGLGGDAHFDEDERWTDGSSLGINFLYAATHELGHSLGMGHSSDPNAVMYPTYGNGDPQNFKLSQDDIKGIQKLYGKRSNSRKK
B2: ADAMTS 4 (enzyme, UniProt O75173 213-837, looked up, species assumed)
A disintegrin and metalloproteinase with thrombospondin motifs 4: FASLSRFVETLVVADDKMAAFHGAGLKRYLLTVMAAAAKAFKHPSIRNPVSLVVTRLVILGSGEEGPQVGPSAAQTLRSFCAWQRGLNTPEDSDPDHFDTAILFTRQDLCGVSTCDTLGMADVGTVCDPARSCAIVEDDGLQSAFTAAHELGHVFNMLHDNSKPCISLNGPLSTSRHVMAPVMAHVDPEEPWSPCSARFITDFLDNGYGHCLLDKPEAPLHLPVTFPGKDYDADRQCQLTFGPDSRHCPQLPPPCAALWCSGHLNGHAMCQTKHSPWADGTPCGPAQACMGGRCLHMDQLQDFNIPQAGGWGPWGPWGDCSRTCGGGVQFSSRDCTRPVPRNGGKYCEGRRTRFRSCNTEDCPTGSALTFREEQCAAYNHRTDLFKSFPGPMDWVPRYTGVAPQDQCKLTCQAQALGYYYVLEPRVVDGTPCSPDSSSVCVQGRCIHAGCDRIIGSKKKFDKCMVCGGDGSGCSKQSGSFRKFRYGYNNVVTIPAGATHILVRQQGNPGHRSIYLALKLPDGSYALNGEYTLMPSPTDVVLPGAVSLRYSGATAASETLSGHGPLAQPLTLQVLVAGNPQDTRLRYSFFVPRPTPSTPRPTPQDWLHRRAQILEILRRRPWAGRK
B3: cathepsin K (enzyme, UniProt P43235 115-329, looked up, species assumed)
Cathepsin K: APDSVDYRKKGYVTPVKNQGQCGSCWAFSSVGALEGQLKKKTGKLLNLSPQNLVDCVSENDGCGGGYMTNAFQYVQKNRGIDSEDAYPYVGQEESCMYNPTGKAAKCRGYREIPEGNEKALKRAVARVGPVSVAIDASLTSFQFYSKGVYYDESCNSDNLNHAVLAVGYGIQKGNKHWIIKNSWGENWGNKGYILMARNKNNACGIANLASFPKM

For the series, the system named is T1, Link N (human Link N, DHLSDNYTLDHDRAIH).
T1 sequence: DHLSDNYTLDHDRAIH
For ADAMTS 5, the “peak area intensity of the 1922 Da Link 1-16 peptide (mass spectrometry) after proteinase digest” value (“peak area intensity” for short) was “un-affected by MMPs 3, 7, 12, 13, ADAMTS 4,5, HTRA1, and cathepsins B, and L”.

As to HTRA1, the “peak area intensity” value is “un-affected by MMPs 3, 7, 12, 13, ADAMTS 4,5, HTRA1, and cathepsins B, and L”.

MMP 3: the “peak area intensity” value is “un-affected by MMPs 3, 7, 12, 13, ADAMTS 4,5, HTRA1, and cathepsins B, and L”.

Regarding MMP 12, the “peak area intensity” value is “un-affected by MMPs 3, 7, 12, 13, ADAMTS 4,5, HTRA1, and cathepsins B, and L”.

For MMP 13, the “peak area intensity” value was “un-affected by MMPs 3, 7, 12, 13, ADAMTS 4,5, HTRA1, and cathepsins B, and L”.

As for cathepsin B, the “peak area intensity” value is “un-affected by MMPs 3, 7, 12, 13, ADAMTS 4,5, HTRA1, and cathepsins B, and L”.

cathepsin L: the “peak area intensity” value was “un-affected by MMPs 3, 7, 12, 13, ADAMTS 4,5, HTRA1, and cathepsins B, and L”.

For B1, the “peak area intensity” value is “un-affected by MMPs 3, 7, 12, 13, ADAMTS 4,5, HTRA1, and cathepsins B, and L”.

On to B2, for which the “peak area intensity” value was “un-affected by MMPs 3, 7, 12, 13, ADAMTS 4,5, HTRA1, and cathepsins B, and L”.

For B3, the “peak area intensity” value is “significantly diminished already after 30 minutes and was hardly detectable at 2 and 24 hours incubation with cathepsin K”.

For the origin of these results see patent US20210079040.
